± gives the standard deviation of the averaged measurements.
How the values were obtained:
[1] = test system: MCF7; experiment: percentage of EdU-negative (G0-arrested) nuclei per well, 72 h; higher = more G0 arrest; details: reference: sequence is the full UniProt precursor, the tested protein was the secreted form or ectodomain
[2] = test system: hTERT-HMEC; experiment: as above; details: reference: sequence is the full UniProt precursor, the tested protein was the secreted form or ectodomain
[3] = protein concentration 0.0225 µM
[4] = protein concentration 0.0065 µM
[5] = protein concentration 0.00525 µM
[6] = protein concentration 0.0525 µM
[7] = protein concentration 0.03108 µM
[8] = protein concentration 0.3108 µM
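Also: secreted proteins added to cultured cells, EdU pulse at the end, nuclei found by Hoechst imaging, EdU status from nuclear versus surrounding ring intensity ratio, PBS as neutral control.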

For “MEALPLLAATTPDHGRHRRLLLLPLLLFLLPAGAVQGWETEERPRTREEECHFYAGGQVYPGEASRVSVADHSLHLSKAKISKPAPYWEGTAVIDGEFKELKLTDYRGKYLVFFFYPLDFTFVCPTEIIAFGDRLEEFRSINTEVVACSVDSQFTHLAWINTPRRQGGLGPIRIPLLSDLTHQISKDYGVYLEDSGHTLRGLFIIDDKGILRQITLNDLPVGRSVDETLRLVQAFQYTDKHGEVCPAGWKPGSETIIPDPAGKLKYFDKLN”, the “percentage of EdU-negative” value [1, 3] was 26.1 ± 1.3%, the “percentage of EdU-negative” value ([1]; protein concentration 0.225 µM) was 27.8 ± 0.15% and the “percentage of EdU-negative” value [2, 3] was 5.57 ± 1.3%. For the same sequence, the “percentage of EdU-negative” value ([2]; protein concentration 0.225 µM) was 4.84 ± 0.26%.

With “MEAVAVAAAVGVLLLAGAGGAAGDEAREAAAVRALVARLLGPGPAADFSVSVERALAAKPGLDTYSLGGGGAARVRVRGSTGVAAAAGLHRYLRDFCGCHVAWSGSQLRLPRPLPAVPGELTEATPNRYRYYQNVCTQSYSFVWWDWARWEREIDWMALNGINLALAWSGQEAIWQRVYLALGLTQAEINEFFTGPAFLAWGRMGNLHTWDGPLPPSWHIKQLYLQHRVLDQMRSFGMTPVLPAFAGHVPEAVTRVFPQVNVTKMGSWGHFNCSYSCSFLLAPEDPIFPIIGSLFLRELIKEFGTDHIYGADTFNEMQPPSSEPSYLAAATTAVYEAMTAVDTEAVWLLQGWLFQHQPQFWGPAQIRAVLGAVPRGRLLVLDLFAESQPVYTRTASFQGQPFIWCMLHNFGGNHGLFGALEAVNGGPEAARLFPNSTMVGTGMAPEGISQNEVVYSLMAELGWRKDPVPDLAAWVTSFAARRYGVSHPDAGAAWRLLLRSVYNCSGEACRGHNRSPLVRRPSLQMNTSIWYNRSDVFEAWRLLLTSAPSLATSPAFRYDLLDLTRQAVQELVSLYYEEARSAYLSKELASLLRAGGVLAYELLPALDEVLASDSRFLLGSWLEQARAAAVSEAEADFYEQNSRYQLTLWGPEGNILDYANKQLAGLVANYYTPRWRLFLEALVDSVAQGIPFQQHQFDKNVFQLEQAFVLSKQRYPSQPRGDTVDLAKKIFLKYYPRWVAGSW” the “percentage of EdU-negative” value [1, 4] was 24.9 ± 1.1%, the “percentage of EdU-negative” value ([1]; protein concentration 0.065 µM) was 26 ± 2.8% and the “percentage of EdU-negative” value [2, 4] was 4.39 ± 0.1%. For the same sequence, the “percentage of EdU-negative” value ([2]; protein concentration 0.065 µM) was 5.55 ± 0.91%.

For “MEDLCVANTLFALNLFKHLAKASPTQNLFLSPWSISSTMAMVYMGSRGSTEDQMAKVLQFNEVGANAVTPMTPENFTSCGFMQQIQKGSYPDAILQAQAADKIHSSFRSLSSAINASTGNYLLESVNKLFGEKSASFREEYIRLCQKYYSSEPQAVDFLECAEEARKKINSWVKTQTKGKIPNLLPEGSVDGDTRMVLVNAVYFKGKWKTPFEKKLNGLYPFRVNSAQRTPVQMMYLREKLNIGYIEDLKAQILELPYAGDVSMFLLLPDEIADVSTGLELLESEITYDKLNKWTSKDKMAEDEVEVYIPQFKLEEHYELRSILRSMGMEDAFNKGRANFSGMSERNDLFLSEVFHQAMVDVNEEGTEAAAGTGGVMTGRTGHGGPQFVADHPFLFLIMHKITNCILFFGRFSSP”, the “percentage of EdU-negative” value [1, 5] was 24.7 ± 0.25%, the “percentage of EdU-negative” value [1, 6] was 27.383 ± 0.014% and the “percentage of EdU-negative” value [2, 5] was 5.431 ± 0.036%. The “percentage of EdU-negative” value [2, 6] was 5.26 ± 1.3%.

“MEEAILVPCVLGLLLLPILAMLMALCVHCHRLPGSYDSTSSDSLYPRGIQFKRPHTVAPWPPAYPPVTSYPPLSQPDLLPIPRSPQPLGGSHRTPSSRRDSDGANSVASYENEGASGIRGAQAGWGVWGPSWTRLTPVSLPPEPACEDADEDEDDYHNPGYLVVLPDSTPATSTAAPSAPALSTPGIRDSAFSMESIDDYVNVPESGESAEASLDGSREYVNVSQELHPGAAKTEPAALSSQEAEEVEEEGAPDYENLQELN” was tested, and the “percentage of EdU-negative” value [1, 3] was 25.6 ± 1.2%, the “percentage of EdU-negative” value ([1]; protein concentration 0.225 µM) was 25.8 ± 2.6% and the “percentage of EdU-negative” value [2, 3] was 5.1 ± 0.68%. The “percentage of EdU-negative” value ([2]; protein concentration 0.225 µM) was 5.5816 ± 0.0039%.

With “MEEGQYSEIEELPRRRCCRRGTQIVLLGLVTAALWAGLLTLLLLWHWDTTQSLKQLEERAARNVSQVSKNLESHHGDQMAQKSQSTQISQELEELRAEQQRLKSQDLELSWNLNGLQADLSSFKSQELNERNEASDLLERLREEVTKLRMELQVSSGFVCNTCPEKWINFQRKCYYFGKGTKQWVHARYACDDMEGQLVSIHSPEEQDFLTKHASHTGSWIGLRNLDLKGEFIWVDGSHVDYSNWAPGEPTSRSQGEDCVMMRGSGRWNDAFCDRKLGAWVCDRLATCTPPASEGSAESMGPDSRPDPDGRLPTPSAPLHS” the “percentage of EdU-negative” value ([1]; protein concentration 0.005 µM) was 23.6 ± 0.92%, the “percentage of EdU-negative” value ([1]; protein concentration 0.05 µM) was 23.9 ± 0.99% and the “percentage of EdU-negative” value ([2]; protein concentration 0.005 µM) was 5.26 ± 0.5%. The “percentage of EdU-negative” value ([2]; protein concentration 0.05 µM) was 5.97 ± 0.12%.

With “MEESVVRPSVFVVDGQTDIPFTRLGRSHRRQSCSVARVGLGLLLLLMGAGLAVQGWFLLQLHWRLGEMVTRLPDGPAGSWEQLIQERRSHEVNPAAHLTGANSSLTGSGGPLLWETQLGLAFLRGLSYHDGALVVTKAGYYYIYSKVQLGGVGCPLGLASTITHGLYKRTPRYPEELELLVSQQSPCGRATSSSRVWWDSSFLGGVVHLEAGEKVVVRVLDERLVRLRDGTRSYFGAFMV” the “percentage of EdU-negative” value ([1]; protein concentration 0.012 µM) was 23.7 ± 1.9%, the “percentage of EdU-negative” value ([1]; protein concentration 0.12 µM) was 25.5 ± 0.62% and the “percentage of EdU-negative” value ([2]; protein concentration 0.012 µM) was 6.38 ± 0.16%. For the same sequence, the “percentage of EdU-negative” value ([2]; protein concentration 0.12 µM) was 15.2 ± 1.9%.

With “MEFLWAPLLGLCCSLAAADRHTVFWNSSNPKFRNEDYTIHVQLNDYVDIICPHYEDHSVADAAMEQYILYLVEHEEYQLCQPQSKDQVRWQCNRPSAKHGPEKLSEKFQRFTPFTLGKEFKEGHSYYYISKPIHQHEDRCLRLKVTVSGKITHSPQAHDNPQEKRLAADDPEVRVLHSIGHSAAPRLFPLAWTVLLLPLLLLQTP” the “percentage of EdU-negative” value [1, 7] was 24.521 ± 0.0085%, the “percentage of EdU-negative” value [1, 8] was 24.81 ± 0.061% and the “percentage of EdU-negative” value [2, 7] was 6.23 ± 0.24%. The “percentage of EdU-negative” value [2, 8] was 7.2445 ± 0.004%.

— the supplement of paper PMC11316812
